Assay results taken from PMC12376665.

Target: SlAVT6A (split-ubiquitin bait fusion) (tomato (Solanum lycopersicum))
Sequence (main, as listed by the source): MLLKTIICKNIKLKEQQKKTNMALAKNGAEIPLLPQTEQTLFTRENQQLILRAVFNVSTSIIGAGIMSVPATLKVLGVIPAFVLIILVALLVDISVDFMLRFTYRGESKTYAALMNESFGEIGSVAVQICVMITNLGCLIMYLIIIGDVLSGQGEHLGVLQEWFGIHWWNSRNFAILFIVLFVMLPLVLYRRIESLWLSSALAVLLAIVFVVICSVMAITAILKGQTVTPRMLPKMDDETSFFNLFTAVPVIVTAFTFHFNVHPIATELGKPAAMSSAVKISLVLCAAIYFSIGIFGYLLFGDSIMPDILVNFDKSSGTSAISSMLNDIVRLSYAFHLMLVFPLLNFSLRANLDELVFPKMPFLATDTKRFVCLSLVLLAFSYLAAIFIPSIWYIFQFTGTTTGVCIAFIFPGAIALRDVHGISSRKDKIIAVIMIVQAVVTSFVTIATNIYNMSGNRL

- amino acid content in the liquid culture of yeast co-expressing SlAVT6A and SlAVT6B, relative to SlAVT6A expressed alone: 21.8%
- efflux activity for amino acids in yeast co-expressing SlAVT6A and SlAVT6B, compared to only SlAVT6A expressing: 65%
Substance: SlAVT6B (split-ubiquitin prey fusion) (from UniProt A0A3Q7FT69 1-472) (natural protein)
